In the NTF2 design screens of Basanta et al. (2020) one finds protease stability score data, which are given here for 47 sequences.

This data set can be described thus: protease stability score; higher = more stable; yeast display proteolysis, trypsin and chymotrypsin.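 Also: relative to predicted unfolded state with 0 unfolded-like and 1 meaning tenfold more protease.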
In turn, “DEINKMLKEVLDRYTEAIRTGDEDILLELLDPNTRVIINGQDKHGREYWYTWFAELLKRVDHQDVRFHEIRLQGDKVQVDVELIFNAENHHLHIRTDIIIEKFDGRWIITEFRMH” showed a protease stability score of 1.38.

The sequence “HEEEKHMEELSRHFLHNEHTGDEKMLKHLADPHAKVFINGRELHGWDVLVEWLNKFKNIKVELHSERVINGRLFLHVNYHVNGRTTELHLILYIVDGKIHTLILEVR” yielded a protease stability score of 0.756.

For the sequence “DEDHELMRWMLELLIDHTLTGDEERIHELADPNVKIDVNGVELHGRHLWIKYLSELRIHKVEIRQTRLIDGVMHIDTSLDISYDGVRRETQHHLVILKINGKWMIHNVSYK”, the protease stability score was 1.15.

“SEIERDAREFLRVLLEHLHTGDEDDLARLADPHVLIDIDGREIVGRELFREIWHEMGVNHTEYKDLDIQGNKLHIHINVNVNGKVRSLRIVVRKVNGRWFIEREHYE” showed a protease stability score of 1.52.

“SEDEELTNKMRHLFLHAVRTGDETVLNRLIDPNTKLHINGVDIHGREEVRTLLREMRRHEFRTRTVEIRVIDGRVEVREDVERNGVVNGQEYETRVIIIYHAVKVDGKWVWTEIRFEER” came in with a protease stability score of 0.609.

Consider “SHEEHHLYEVAEMLLRWWRTGDEDSLYKFIDPHARVEIGEYSVHGREHIVRLMSRHLREIRLKDTDVHRIDVINGQTVLNVRLRGEINGVDTNVDARLHVVVVDGVVHSIHIEHI”, for which the protease stability score stood at 1.24.

On to “SEDHDTDRHIMDLILRDVFTGDEEEFTRLADPNVKHIDENHFSVGWENVLEMLRFWEDEARMTDIKIHDLEIQGDKIVSHVHIDGEVNGKRRELEVIIYILKVDGKWHLEYFEVR”, for which the protease stability score was determined as 2.2.

The sequence “DEEERVRDEIERLIEESLRTGDWRHLSELFDPNVRMEVGDKDIIGRERVHQAIHDFWKSFGADHRHLHDIEEINGVVIMHMRYRVGNKTVHFHVIMIKINGRWFLHSVHIHID” came in with a protease stability score of 1.11.

In turn, “EEEERVAVEFFRTLQESIRTGDEKTVKELADPNTRLDVGDKHFHGMEEIRKYWLRFDHFERHTLREEDFDVVNGVMSVHGRLEVHGRYNGQRVHTHYHMVIFVLKVNGRWKITEIKLH” had a protease stability score of 1.

As for “SEEEEDAERAERLIFEYHRTGDERLFRELVDPNVRLRVGDKEYHGREDFLRIMLELRIDRMHLHEIRVVDGRVHSRTEVDGTWNGRKFLTETESIIIKINGRWVLHSFHFH”, the protease stability score came out at 1.69.

The sequence “DEKDNVVEHLARRLIEAELTGDWKFLSELIDPNVRVQVGNKKSHGREEYVHIAEEWWIHEQHIRHVEIQGDKVHLEVETDMVVDGRRVRIEIEIHIHIINGRIKEIRINIV” had a protease stability score of 0.989.

With “DEIEEEVRKFAEIHSRDLMTGNFESFREQADPHVRVIINGREFHGWHFLFHWLQEMRIHRVRIEDVRVYGDKAILDTRVESHVDGRTFDLEFKLVLSKVDGRWRVHQIILR”, the protease stability score was determined as 1.11.

Turning to “DDEERLIKHLAERWMKDLHTGNEDSLEEMADPNWRLRQIVNGQEVRDIGREKMIEVIREIEKKLGIDRIELHVHKVEIQGDKAHLNTEIRYNGQSSLHEIRLTIINGRLHSVTIHVK”, the protease stability score is 0.85.

On to “SESLEFATKLLEILTHLMYTGDEEDLRHLLDPHVRILFNGKYFHGMEFLMEIYKHWRIQEVRVRFRDVRDVDGRIFVRGEEENVGTINGKRDIVWSHITLIAEKVDGRWVVKEIRIE”, for which the protease stability score is 1.88.

As to “SEDEEKVFEHLQRITESFVTGDEDSFRHLLDPNVLFLINGRIFHGWEALHWELRRYDHHEVRVHVHHIDFINGRARSDIRLDLHLNFNGKQIDIHTETRVHAEKINGRWRLKRIDIE”, the protease stability score is 0.811.

“TEDEKFVEEFTRLIMHSFRTGDWELFEHLLDPDTRIEQGDWERIGMEEAIRLLHKVVHEMRVTHTDLKSITVIDGRIEIDARVHLEFNGQSVTYTQLILSIKIDGRWVLKSVHFH” registered a protease stability score of 1.87.

For the sequence “SDLEDEFREFLEEWIKHWLTGDEETLFHLADPHAQIDINGREHHGMDEWMHILLKHLKELGARIEIRIEDIRVQGEKTEVDGNLILHINGRRKELKVELIVRVVNGRLKSIEIRIH”, the protease stability score is 1.02.

“DEEEKLMKHRWEEWVRFLKTGDFDEIHDYMDPNVRLFIGDKTFHGRDVFARLVYRMGAKHVEFDLHDEHLINGKLIFHGRVVHTQGDKFIEFEVEIIAEKVNGKWLNRHQIFR”: the protease stability score was determined as 0.456.

The sequence “SEDEEWAKRMADNILEFLNTGDFREFSKELDPNTILRIDGREIHGMELVETHLEHARMRVDDWEIRSVRSVNGKLDVDMRLDGKLRFDGKEHYRKTESILIILKVDGKWRIHNIHVR” registered a protease stability score of 1.07.

In turn, “EHEEEHTRHFMHFFIEMVETGDETALHKLLDPNAKYIQGDKHLVGRELMVEWMEELVRRFKNIRVHITEIERQGDKARVDEKWDINGKKIKTELIITKIDGQWRIHEIRVK” registered a protease stability score of 1.23.

For the sequence “SELNHSVRRAIEIFERVSKTGDEREIRDLADPNVKLDFDGREHHGWEWFVRFMKEIRIKDHRIRDVELIGEFVIIHGELEMEINGVDIRTEVEFYVFKINGKWYLKRLIIR”, the protease stability score is 1.92.

The sequence “DEDRIISEEAAKLFLHLLLTGDEKVFDEYLDPRTRLIIGDKEFIGRETLRKTMQEFRHKAGIDHMHIRDSRIELIDGRVVQHLEIHVRFNGKSEDRVIHVFIEKINGRWHIHFVEVKID” had a protease stability score of 1.53.

“SEEEELTRITEQLMIEHLRTGDWDELQHLLDPDARLHFNGREFIGREIVIKLKLEKLRDLGMTFRDFHIKSWDSQGDKIHLRVREEVEFNGKNIELDVEIIARKVDGKWFIEQIKVR” registered a protease stability score of 1.1.

In the case of “SEDERFWKKALDDLLDTIRTGDEHKFREMMDPNVRVHIGDKHFHGREQASEQVVRLGVDHIELRRVDFQGDYLEIHGHLRVNGRETRIHFVLLKIDGRWVVKEVRQE”, the protease stability score is 2.21.

The sequence “DEDTEKVERIAKEVINLHETGDWENWSKQADPHTRVELNVDGQHFEYIGREKFREALEWLGIKHSHFHHIEIIGDKLHVDGYSFFNGRRTRVELRFVIVNGRIKHQIIIIK” registered a protease stability score of 0.848.

“DEETRDFDVAFMYFILFEKTGDERELLELLDPDARMVVGDKRRVGRESVLHFMREHLRTLGFKHVEDIELHDFKVYDGRIELDIRVRGRVNGKTHTLTYLMIAHKVDGRWFIHSLEVR” registered a protease stability score of 2.14.

Turning to “DDKHEINRELTRLFFETWLTGDEDWFQKMLDPHVRVEVGDKRSHGREEAARMLREHFESLGIKHLEYKSIELQGDKTIIDGRLDVDGQTRNSKIKVLIIDGRLTHLHIKLE”, the protease stability score is 1.01.

In turn, “NEREEHIRRLAELVRELIDTGDFDRLIKNADPNVRLEMEIGDKRIEHHGRERVHEQLEEFERRFKNATFIWKRIDVQGEKVLLDGTIRINGQEHEMHWDNQMFNGRIHSIRIDVR” showed a protease stability score of 2.2.

On to “DEEEERTERVSQLFWELFLTGDEEELFKLVDPHVRSHVGDKDYHGRETAHEIWHRIKNVRMRLDHVELRIVNGRADLHVRGKLIIGDKKVELNIEILVVKVNGQWLVERIRVETK”, for which the protease stability score amounted to 1.31.

The sequence “SEDEEHWRKTINLLIIAIRTGNEDLFWKLLDPNTRFEVDIGDKMIDLHGREKVAEWLHRFIHKIPNLKIHIREIEFNENETRIHGETHFDGKTRTVEIIIELVDGRMKEFIFIVK” came in with a protease stability score of 2.16.

In turn, “DEDRKEMEEILRLYLEAFLTGDEKLLRHLVDPHVKLDINGVRLHGMDLLIKLLIHEARFFKGMKVEIRIHRVHVQGDKVENDTELILIFDGREFRRRTFLLWLKIDGRWLLESERIE” had a protease stability score of 1.45.

In turn, “SEIDREHHELLTLLVHLWLTGDWKTFKKYFDPNVRLHQGDFDDHGWEALEETERKHGIEIKDLELHEFHVQGEKIIINLHVVIRQGDKTYRKDMRITYVVVNGRVTSIRMEVR” came in with a protease stability score of 0.877.

As for “HEDNDIMEKAMEDILEKIVTGDEDFLREQMDPHVRSVDIINGRRIERHGREDILELLRRLGFDHVRLERYDIQGDKLIVHSKFTYGDKETELRIIIWKVNGRWVFHSVEVIIL”, the protease stability score stood at 1.87.

Take “DEDREVAENMVRLFIHFLLTGNEERLNQYFDPHTLLIVGDKRYHGMEESNKWIVELWTERVEIRHIEVDYYGDKVHATISGHHVGIVDGKRIETQVDFHFRIDKIDGRWVAREVEIRHD”: the protease stability score was 2.06.

For the sequence “REWKEEMLRFLTRWNKAYKTGNEQELNKLADPNVRVDINGKQLHGRELATLIVSELRIEETHVKMDTFRIVGEKAEIDSRLEIHGVYDGVKMDTHHEVVIILRKVDGQWHLTTMEER”, the protease stability score was 0.382.

In turn, “DEERKIVLESVRLWLDEWETGDESALEKLMDPNVRVIIGDKTVHGREQMIKFLREWLTRYDHLEIKLRDIKVIGDKIHVESEFRYHIGDKELSHRTNVVLKIVDGKLKSVRVDFE” came in with a protease stability score of 1.93.

“DEDTEIAFELVDLVMKSLKTGDEHLMLRLMDPHTRLEVGDKEHHGWEEILKELSEIRIHLEDVDHRDVRIYGEKIHVDVEVDITIEYNGRRTRVKTRLEVDILKVNGQWRVKQVSLK”: the protease stability score stood at 2.07.

The sequence “DEREKREEEVLKIIIEITETGDWRIFMELADPHVKLDIGDKDMHGMEEAERLWELMHKLLGINHIRFRHLRIQGDKVDMEFNVTIGDKQVDTRRHVITVDGRLHEVHEEFK” showed a protease stability score of 0.399.

“DDLEEEAHKFLRIWLKNIITGDEDTLIELMDPRPRTIFNGVDLHGREDTSKRLSELRFNMRIDDIHVEVQGDKAIALSDVSYELIYNGRHVHLKSEIILTVRKFDGKWKAERLEIRIK” displayed a protease stability score of 1.67.

As to “SEEDELAKYVIRLWVEEFRTGDEESMFRLLDPHVLVQQGDKEYHGRERWEDFIRKLGLQNVRVEVHRVTIQGEFIHVDGIIEIGDKRTRYILYFEKFNGRWINKELRIK”, the protease stability score amounted to 1.48.

Sequence “SENEKILHDLSKELFDIYHTGNEERWSEMADPHVKIDVNGQEYHGREEVEEELEHWRRRFKNARYEIHKIHVFDGRLLIEGHINIDGKKRQIHFRIHVVNGKIKEMRIEIR” yielded a protease stability score of 1.82.

Regarding “SEEEHDAHIALKIWLDNLFTGDEEKLKEMMDPNVRMDFDGRHIHGREAIEMLLRRVDHWHHIEVRLEHLRIIGDKVILHIRQVEHIQIGDKHDRVHSNITLVFLKFDGKWFIREIRIK”, the protease stability score is 2.78.

Turning to “DDIDEHAETVVDHLIRSQMTGNEELFQHLADPHARLDINGKEYVGRELVSKIITHLRIHFLEIQFLHVQGDKVTIDVKIRGKVDGRTETSDQRLILVKINGKWLLTEIEVG”, the protease stability score is 1.03.

“DERLEIARRVVELSIRMLHTGNEEVVRHLLDPNYRLHINGVHLIGMEEFSKWLKELRFDLEHVQMHHITDINGRLFVIGEIIGRLHYDGVTVREERESIWFIEKVDGKWIIKEVELR” had a protease stability score of 1.18.

With “DEDKEEAMKFLRLWFHSVLTGDEDELTRLLDPNTRIVIDGRTFVGREEMVFVMREMRVHHFHIKDVHLVNGVAHIDTHSDIEFNGRRYRTDTEISVLKVDGKWILKSVKIR”, the protease stability score is 2.42.

Sequence “SELDELANFANELFWELHKTGDEEIFNHYADPHMRYEIDGRDIHGMEVFTKHLRRIKNLTLHSIHVHDEKSQGEKFIFDGNVVGRVNGKEFDTRVRLELTVINGRVHSIILRRH” gave a protease stability score of 1.41.

The sequence “DEYEREYKKFIDDMLHAWLTGDEDTLQELVDPNARLHFNGQELHGRDIWLRNYREHGMKVKSYHIEHREIQGEKIIIRGRLNGHVNGRNSNMDIILIIEKVDGRWVMQDIRIS” showed a protease stability score of 1.98.
